Assay results from patent US9217013B2, “Treatment of amyloidoses using myelin basic protein and fragments thereof” (The Research Foundation for the State University of New York, priority 2008, dated 2015).

Legend:
[1] = molecular target: Dutch/Iowa CAA mutant Aβ40 (Aβ40DI) (Homo sapiens, UniProt P05067, D694N/E693Q); assay: Surface plasmon resonance binding to immobilized Dutch/Iowa Aβ40
Description: All runs were performed on a Biacore 2000 instrument using 10 mM HEPES (pH 7.4), 150 mM NaCl, 3 mM EDTA, and 0.005% (v/v) Tween 20 as running buffer and diluent. Streptavidiri was conjugated to the surface of three flow cells of a CM5 chip at 10 μl/min using amine coupling chemistry to a final average response level of 1890.2 response units. N-terminally biotinylated Aβ peptides were resuspended in Me2SO to 2.5 mM and serially diluted to 13 nM immediately before application. Biotinylated Aβ40WT and Aβ40DI were bound to individual flow cells at 10 μl/min to achieve an average relative response level of 157.1 response units, leaving flow cell 1 as reference. […] The resultant Rmax of these surfaces was ˜700 response units with MBP as analyte. Purified MBP was passed over all four flow cells at 5, 10, 25, 50, and 100 nM at a flow rate of 30 μl/min for kinetic measurements. […] Surfaces were regenerated with 0.2 M glycine (pH 2.0) and 150 mM NaCl between runs. The resulting sensorgrams were analyzed by BIAanalysis software. Triplicate concentration series were used for each surface.
Using recombinant methodology to express and purify regions of the 18.5 kDa human MBP protein and test their abilities to bind Aβ and inhibit fibrillogenesis, cDNAs were prepared for the following regions of MBP shown in FIG. 3. The cDNAs for MBP fragments were cloned into pTYB11 plasmids containing an ampr gene and transformed into competent E. coli BL21 DE3 cells. Expression of cDNAs in this vector results in a fusion protein containing a chitin binding domain (CBD) as well as a self-cleavable intein protein from S. cerevisiae. CBD-Intein-MBP fusion proteins were captured on chitin beads from the resulting cell lysates. MBP protein fragments were eluted by inducing the cleavage between the C-terminus of the intein and the N-terminus of MBP by exposure to dithiothreitol. […] MBP was further purified by cation exchange chromatography on CM52 resin, resulting in a >95% pure protein preparations. Each of the four MBP fragments were tested for binding to Dutch/Iowa Aβ40 and wild-type Aβ42 by surface plasmon resonance (FIG. 4).

Dutch/Iowa Aβ40 (Aβ40DI) = Dutch/Iowa Aβ40 (Aβ40DI) (Homo sapiens, UniProt P05067, D694N/E693Q); assay: TEM and single-touch AFM of Aβ40DI fibril formation; type: biochemical
Description: FIG. 18 Inhibition of Aβ40DI fibril formation by MBP as assessed by TEM and single-touch AFM analyses. Aβ40DI peptides at a concentration of 12.5 μM in PBS in the absence or presence of 1.56 μM MBP. Samples were imaged at 6 h by TEM (A and B) and at 3 h by single-touch AFM (D and E). Aliquots of 1.56 μM MBP alone were imaged by TEM (C) and by AFM (F).
For electron microscopy, a 20 μl aliquot of the sample mixture was deposited onto a Formvar-coated copper mesh grid. The sample was allowed to stand for 60 s, and excess solution was wicked away. The samples were negatively stained with 2% (w/v) uranyl acetate. The excess stain was wicked away, and the sample was allowed to dry. The samples were viewed with an FEI Tecnai 12 BioTwin transmission electron microscope, and digital images were taken with an Advanced Microscopy Techniques camera.
Atomic force microscopy (“AFM”) was carried out using a lifeScan controller (LifeAFM Inc., Port Jefferson, N.Y.) interfaced with a MultiMode microscope (Digital Instruments, Santa Barbara, Calif.) fitted with an E seamier. With this instrument configuration, only a single contact of the AFM probe is made with the sample per pixel. Computer control of the cantilever position and angle during approach allows for detection of the sample height with minimum cantilever deflection, allowing for a minimum compressive force (30-100 piconewtons/nm) applied to the sample. AFM samples were prepared by adsorbing 20 μl of sample mixture to freshly cleaved ruby mica (S & J Trading, Inc., Glen Oaks, N.Y.) for 45 min to 1 h. The samples were rehydrated with ultrapure Milli-Q water (Millipore Corp., Billerica, Mass.) and immediately imaged. Samples were imaged using SuperSharpSilicon probes (SSS-CONT, NANOSENSORS, Neuchatel, Switzerland) that were modified for magnetic retraction by attaching samarium cobalt particles. The effective diameter of the SuperSharpSilicon probes was 4±1 nm at a height of 2 nm. Data analysis and graphics were performed using Interactive Display Language Version 5.0 (Research Systems, Inc., Boulder, Colo.). In the Z-scale bars, numbers in each color square indicate the Z-value at the middle of the range for that color.

[2] = in the presence of MBP at 3 hours

B1: myelin basic protein (protein)
chain: ASQKRPSQRHGSKYLATASTMDHARHGFLPRHRDTGILDSIGRFFGGDRGAPKRGSGKDSHHPARTAHYGSLPQKSHGRTQDENPVVHFFKNIVTPRTPPPSQGKGRGLSLSRFSWGAEGQRPGFGYGGRASDYKSAHKGFKGVDAQGTLSKIFKLGGRDSRSGSPMARR
notes: myelin basic protein, major form about 18.5 Kd (170 residues); purified protein
binding to Dutch/Iowa CAA mutant Aβ relative to wild-type Aβ ([1]; SPR): bound more tightly
Kd ([1]; surface plasmon resonance): 16.9 nM
aggregation of MBP alone (TEM and AFM) (Dutch/Iowa Aβ40 (Aβ40DI); 1.56 μM MBP alone): does not aggregate significantly
Aβ40DI fibril formation by TEM (Dutch/Iowa Aβ40 (Aβ40DI); 6 hours, sub-stoichiometric MBP): no evidence of fibril formation
heights of Aβ40DI oligomers and protofibrils by AFM (Dutch/Iowa Aβ40 (Aβ40DI); [2]): ≈ 2 nm
lengths of Aβ40DI oligomers and protofibrils by AFM (Dutch/Iowa Aβ40 (Aβ40DI); [2]): < 200 nm
